B1: Septin-5 (Homo sapiens), Q99719 (parent)
chain: MSTGLRYKSKLATPEDKQDIDKQYVGFATLPNQVHRKSVKKGFDFTLMVAGESGLGKSTLVHSLFLTDLYKDRKLLSAEERISQTVEILKHTVDIEEKGVKLKLTIVDTPGFGDAVNNTECWKPITDYVDQQFEQYFRDESGLNRKNIQDNRVHCCLYFISPFGHGLRPVDVGFMKALHEKVNIVPLIAKADCLVPSEIRKLKERIREEIDKFGIHVYQFPECDSDEDEDFKQQDRELKESAPFAVIGSNTVVEAKGQRVRGRLYPWGIVEVENQAHCDFVKLRNMLIRTHMHDLKDVTCDVHYENYRAHCIQQMTSKLTQDSRMESPIPILPLPTPDAETEKLIRMKDEELRRMQEMLQRMKQQMQDQ
partner: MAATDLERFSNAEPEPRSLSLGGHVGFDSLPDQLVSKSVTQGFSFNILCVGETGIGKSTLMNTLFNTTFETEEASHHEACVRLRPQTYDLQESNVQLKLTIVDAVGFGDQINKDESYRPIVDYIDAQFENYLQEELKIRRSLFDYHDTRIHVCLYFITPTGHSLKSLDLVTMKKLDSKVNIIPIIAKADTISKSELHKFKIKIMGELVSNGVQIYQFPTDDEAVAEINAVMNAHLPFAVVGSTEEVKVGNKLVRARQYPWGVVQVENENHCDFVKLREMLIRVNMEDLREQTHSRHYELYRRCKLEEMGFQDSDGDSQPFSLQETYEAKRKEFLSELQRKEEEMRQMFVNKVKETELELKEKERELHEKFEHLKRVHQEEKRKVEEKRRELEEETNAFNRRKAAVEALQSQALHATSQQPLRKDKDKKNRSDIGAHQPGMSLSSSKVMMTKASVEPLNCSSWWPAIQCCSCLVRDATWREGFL

From IntAct's records for PubMed 15214843 come the findings set out here.

This test covers variants of B1. The conditions noted are these: with sept8_human SEPTIN8, Q92599.
Turning to S38A, the “effect of a mutation on the interaction” value was “with no effect”.

Turning to K40A;K41A, the “effect of a mutation on the interaction” value is listed as “with no effect”.

With S58N, the “effect of a mutation on the interaction” value is “disrupting interaction strength”.
